Key:
CFP-Bcl-XL (human) = CFP-Bcl-XL (human) (UniProt Q07817); test: FRET on mitochondria of bryostatin-1 treated Cos-1 cell, with the fluorophores as the legend of FIG. 5A names them
YFP-Bcl-XL (human) = YFP-Bcl-XL (human) (UniProt Q07817); test: acceptor-photobleaching FRET on single mitochondria of living cells after PKC agonist

| FRET efficiency (CFP-Bcl-XL (human)) | FRET efficiency (YFP-Bcl-XL (human)) | Substance |
| --- | --- | --- |
| 17% |  | YFP-K-Ras12V (from UniProt P01116 1-186) |
|  | 17% | CFP-K-Ras12V (from UniProt P01116 1-186) |

From patent US20060083742A1
